B1: FIKK13_4_S7AY10A (peptide)
chain: YPLRFLAVKAHCG
modifications: D-tyrosine at position 1; cyclised via a thioether bond between the N-terminus and the cysteine side chain; C-terminal amide
B2: FIKK13_4 (peptide)
chain: YPLRFLSKYHCG
modifications: D-tyrosine at the N-terminus; cyclised via a thioether bond between the N-terminus and the cysteine side chain; C-terminal amide

Experiments:
[1] = target: T1, Bio-His-FIKK13 (Plasmodium falciparum 3D7, biotin (site not stated)); test: SPR; single-cycle kinetics, Biacore S200, Biotin CAPture kit; Bio-His-FIKK13 immobilised (about 1,400 RU), peptides as analytes; 50 mM Tris pH 7.5, 250 mM NaCl, 2 mM DTT, 10 mM MgCl2, 1.5 µM ADP, 0.02% Tween, 0.1% DMSO; 25 °C; 100 s contact time; settings: both partners purified
T1 construct: also called His-bio-FIKK13; PfFIKK13

[2] = target: T2, Bio-His-FIKK13 (P. falciparum, biotin (site not stated)); test: SPR; Bio-His-FIKK13 immobilised (Biotin CAPture kit, about 1,400 RU), Biacore S200, single-cycle kinetics, 100 s contact time, 25 °C, 50 mM Tris pH 7.5, 250 mM NaCl, 2 mM DTT, 10 mM MgCl2, 1.5 µM ADP, 0.02% Tween, 0.1% DMSO; settings: both partners purified
T2 construct: also called His-bio-FIKK13; biotinylated FIKK13

Binder	Kd [1] [nM]	Kd [2] [nM]
B1	> 10000	
B2		17

From PMC12137140, “The fast-evolving FIKK kinase family of Plasmodium falciparum can be inhibited by a single compound” (Nature Microbiology, 2025)
